Test results published in PMC11632364, “Interactions that define the arrangement of sugar-binding sites in BDCA-2 and dectin-2 dimers” (Glycobiology, 2024).
Changes are numbered by the printed parent chain. Blank lines part the entries; values can stand above or below the molecule they belong to.

Legend:
[1] = target: BDCA-2 Ser49Cys variant extracellular domain fused to an N-terminal 3-heptad coiled-coil dimerization domain (human) (UniProt Q8WTT0); assay: SEC; 1 x 30 cm Superdex S75, 10 mM Tris-Cl pH 7.8, 100 mM NaCl, 2.5 mM EDTA, 0.5 mL/min, room temperature; some fragments analysed at serial dilutions
[2] = target: BDCA-2 Ser49Cys variant extracellular domain fused to an N-terminal 3-heptad coiled-coil dimerization domain (human) (UniProt Q8WTT0); assay: non-reducing versus reducing SDS-PAGE (disulfide-linked dimer); bacterially expressed extracellular domain fusions eluted from a 5-mL desialylated egg glycopeptide column with EDTA, gels with or without 2-mercaptoethanol, Coomassie blue
[3] = target: dectin-2 extracellular fragment beginning with His44 fused to an N-terminal 3-heptad coiled-coil dimerization domain (human) (UniProt Q6EIG7); assay: SEC; 1 x 30 cm Superdex S75, 10 mM Tris-Cl pH 7.8, 100 mM NaCl, 2.5 mM EDTA, 0.5 mL/min, room temperature; some fragments analysed at serial dilutions
[4] = target: dectin-2 extracellular fragment beginning with His44 fused to an N-terminal 3-heptad coiled-coil dimerization domain (human) (UniProt Q6EIG7); assay: cross-linking; dectin-2 extracellular domain with dimerization domain in HEPES pH 7.8 buffers, bis(sulfosuccinimidyl) suberate or disuccinimidyl tartrate, serial dilutions, room temperature 30 min, reducing 17.5% SDS-PAGE, Coomassie blue
[5] = target: wild type BDCA-2 extracellular domain (from His44) fused to an N-terminal 3-heptad coiled-coil dimerization domain (human) (UniProt Q8WTT0); assay: SEC; 1 x 30 cm Superdex S75, 10 mM Tris-Cl pH 7.8, 100 mM NaCl, 2.5 mM EDTA, 0.5 mL/min, room temperature; some fragments analysed at serial dilutions
[6] = target: the molecule itself; assay: as above
[7] = target: the molecule itself; assay: cross-linking; BDCA-2 purified from HEK cells in HEPES pH 7.8 buffers, pooled fractions reacted with various concentrations of bifunctional reagent for 30 min, reducing SDS-PAGE, western blot
[8] = target: the molecule itself; assay: non-reducing versus reducing SDS-PAGE (disulfide-linked dimer); BDCA-2 purified from HEK cells by affinity chromatography (lysis with N-ethylmaleimide), gels with or without 2-mercaptoethanol, western blot with anti-BDCA-2 antiserum

- stoichiometry N [1]: 2
- stoichiometry N [2]: 2
Molecule: BDCA-2 Ser49Cys variant extracellular domain fused to an N-terminal 3-heptad coiled-coil dimerization domain (from UniProt Q8WTT0 44-213)

- stoichiometry N [3]: 2
- stoichiometry N [4]: 2
Molecule: dectin-2 extracellular fragment beginning with His44 fused to an N-terminal 3-heptad coiled-coil dimerization domain (from UniProt Q6EIG7 44-209)

- stoichiometry N [5]: 2
Molecule: wild type BDCA-2 extracellular domain (from His44) fused to an N-terminal 3-heptad coiled-coil dimerization domain (from UniProt Q8WTT0 44-213)

More lines, now with the values behind:

B1: dectin-2 extracellular domain starting at Val40 (CRD plus full neck) (domain or fragment, human, UniProt Q6EIG7 40-209, looked up)
chain: VVTYHFTYGETGKRLSELHSYHSSLTCFSEGTKVPAWGCCPASWKSFGSSCYFISSEEKVWSKSEQNCVEMGAHLVVFNTEAEQNFIVQQLNESFSYFLGLSDPQGNNNWQWIDKTPYEKNVRFWHLGEPNHSAEQCASIVFWKPTGWGWNDVICETRRNSICEMNKIYL
notes: human dectin-2 (CLEC-6A) extracellular region starting at Val40; also called full extracellular domain of dectin-2; CRD plus neck fragment starting at residue Val40; source: E. coli BL21(DE3), inclusion bodies, renatured, purified on mannose-Sepharose
- stoichiometry N [6]: 2

B2: blood dendritic cell antigen 2 (BDCA-2), full-length, wild type (receptor, human, UniProt Q8WTT0 1-213, looked up)
chain: MVPEEEPQDREKGLWWFQLKVWSMAVVSILLLSVCFTVSSVVPHNFMYSKTVKRLSKLREYQQYHPSLTCVMEGKDIEDWSCCPTPWTSFQSSCYFISTGMQSWTKSQKNCSVMGADLVVINTREEQDFIIQNLKRNSSYFLGLSDPGGRRHWQWVDQTPYNENVTFWHSGEPNNLDERCAIINFRSSEEWGWNDIHCHVPQKSICKMKKIYI
modifications: N-linked glycans (high mannose and complex)
notes: human BDCA-2, full-length protein expressed in HEK cells; Co-expressed with human FcRγ; no tag is mentioned; also called wild-type BDCA-2; source: HEK 293 cells, stably co-transfected with FcRγ; in lysate and purified from lysate on a desialylated egg-glycopeptide column
- stoichiometry N [7]: 2

B3: BDCA-2 Ser49Cys variant, full-length (receptor, human, UniProt Q8WTT0 1-213, looked up)
chain: B2 chain with S49C
modifications: interchain disulfide bond at Cys49; N-linked glycans (high mannose and complex)
notes: human BDCA-2, full-length construct with the naturally occurring change Ser49Cys (SNP found in a single individual); Co-expressed with human FcRγ; also called Ser49Cys form of BDCA-2; source: HEK 293 cells, stably co-transfected with FcRγ; in lysate and purified from lysate on a desialylated egg-glycopeptide column
- stoichiometry N [8]: 2
